{"source": "patent US10234390", "molecules": {"B1": {"name": "Sortase A enzyme (protein)", "chain": "QAKPQIPKDKSKVAGYIEIPDADIKEPVYPGPATPEQLNRGVSFAEENESLDDQNISIAGHTFIDRPNYQFTNLKAAKKGSMVYFKVGNETRKYKMTSIRDVKPTDVGVLDEQKGKDKQLTLITCDDYNEKTGVWEKRKIFVATEVK"}, "B2": {"name": "Recombinant human MMP-1 (R&D Systems), activated with APMA (protein)", "chain": "FVLTEGNPRWEQTHLTYRIENYTPDLPRADVDHAIEKAFQLWSNVTPLTFTKVSEGQADIMISFVRGDHRDNSPFDGPGGNLAHAFQPGPGIGGDAHFDEDERWTNNFREYNLHRVAAHELGHSLGLSHSTDIGALMYPSYTFSGDVQLAQDDIDGIQAIYGRSQNPVQPIGPQTPKACDSKLTFDAITTIRGEVMFFKDRFYMRTNPFYPEVELNFISVFWPQLPNGLEAAYEFADRDEVRFFKGNKYWAVQGQNVLHGYPKDIYSSFGFPRTVKHIDAALSEENTGKTYFFVANKYWRYDEYKRSMDPGYPKMIAHDFPGIGHKVDAVFMKDGFFYFFHGTRQYKFDPKTKRILTLQKANSWFNCRKN"}}, "key": {"[1]": {"tested_on": "T1, fluorogenic MMP peptide substrate [Dabcyl-Gaba-Pro-Gln-Gly-Leu-Glu(EDANS)-Ala-Lys-NH2]", "T1 sequence": "XXPQGLXAK"}, "[2]": {"target": "T2, Sortase A substrate Dnp-LPETG-(K-FITC)-NH2", "T2 chain": "LPETGK"}, "[3]": {"target": "T3, fluorogenic MMP peptide substrate [Dabcyl-Gaba-Pro-Gln-Gly-Leu-Glu(EDANS)-Ala-Lys-NH2] (not fully specified)", "T3 chain": "XXPQGLXAK"}}, "data": [{"molecule": "MMP-9", "values": [{"measurement": "EDANS fluorescence intensity", "setting": "[1]", "value": "The fluorescence intensity of EDANS cleaved by MMP-9 bound with MNP-MMP9Ab"}]}, {"molecule": "B1", "values": [{"measurement": "FITC fluorescence emission (1 µg/mL Sortase A, 30 min)", "setting": "[2]", "value": "the emission of FITC after the Sortase A substrate cleaved by Sortase A enzyme"}, {"measurement": "FITC fluorescence emission at different contact times", "setting": "[2]", "value": "the longer the interaction between Sortase A enzyme and Sortase A substrate the higher emission of the FITC detected ... only until 30 min contact time"}, {"measurement": "FITC fluorescence emission, S. aureus bacterial supernatant (1 h inoculation)", "setting": "[2]", "value": "about 47.26 a.u."}, {"measurement": "FITC fluorescence intensity, 1×10^-4 µg/mL Sortase A in buffer solution", "setting": "[2]", "value": "100.2±22.7", "unit": "a.u."}, {"measurement": "FITC fluorescence intensity, wound fluid spiked with 1×10^-4 µg/mL Sortase A, 30 min", "setting": "[2]", "value": "about 82.34 a.u."}, {"measurement": "FITC fluorescence signal at different Sortase A concentrations", "setting": "[2]", "value": "this sensing platform still had an obvious signal down to fg/mL of Sortase A concentration"}, {"measurement": "increase of FITC fluorescence intensity on spiking the bacterial supernatant with Sortase A enzyme", "setting": "[2]", "value": "increased the fluorescence intensity about 112.19 a.u."}]}, {"molecule": "B2", "values": [{"measurement": "EDANS emission at 446.5 nm from peptide-functionalised pSiRM", "setting": "[3]", "value": "emission at 446.5 nm was observed"}, {"measurement": "EDANS emission under confocal microscope (microcontact-printed peptide)", "setting": "[3]", "value": "The lighter colour (blue) is the colour of EDANS emission confirming the cleavage of the MMP substrate"}, {"measurement": "EDANS fluorescence intensity at different incubation times (1.2×10^-7 M MMP-1)", "setting": "[3]", "value": "After 5 min of incubation, a significant fluorescence emission indicating the presence of MMP-1 was already detectable ... then plateaued at 15 min incubation time"}, {"measurement": "limit of detection (EDANS fluorescence after 15 min incubation)", "setting": "[3]", "value": "the calculated LOD was 7.5×10^-19 M"}, {"measurement": "shift of the resonance cavity dip (IRS)", "setting": "[3]", "value": "A small blue shift (Δλ=0.5 nm) observed by IRS after incubation with MMP-1"}]}]}
